B1: dBr_Jan07_32293 (dsDNA)
DNA 1: TCGCGGCTCGAAGCACCCTCCCCAGGGGCATCAGCAGTCTGTGTTCCGTTGTCCGTGCTG
DNA 2: CAGCACGGACAACGGAACACAGACTGCTGATGCCCCTGGGGAGGGTGCTTCGAGCCGCGA
B2: dBr_Jan07_03145 (dsDNA)
DNA 1: CCGATTTAGGAGCGGGTAAATACAGGCAGCTCTCTGGTCTGTGTTCCGTTGTCCGTGCTG
DNA 2: CAGCACGGACAACGGAACACAGACCAGAGAGCTGCCTGTATTTACCCGCTCCTAAATCGG
B3: dBr_Jan07_17648 (dsDNA)
DNA 1: TTGCGCCCCCAGTCCCGGATATCATAGGAACGAGGAGTCTGTGTTCCGTTGTCCGTGCTG
DNA 2: CAGCACGGACAACGGAACACAGACTCCTCGTTCCTATGATATCCGGGACTGGGGGCGCAA
B4: dBr_Jan07_04879 (dsDNA)
DNA 1: ATAACGGCCCGCCTGGACTGATACTCTGTCGCACCAGTCTGTGTTCCGTTGTCCGTGCTG
DNA 2: CAGCACGGACAACGGAACACAGACTGGTGCGACAGAGTATCAGTCCAGGCGGGCCGTTAT
B5: dBr_Jan07_09107 (dsDNA)
DNA 1: TCTCCTGTGACAATTACGCCCCCCCCAGGCGCCTACGTCTGTGTTCCGTTGTCCGTGCTG
DNA 2: CAGCACGGACAACGGAACACAGACGTAGGCGCCTGGGGGGGGCGTAATTGTCACAGGAGA
B6: dBr_Jan07_39645 (dsDNA)
DNA 1: AGATCAAAACGTAAGACGACAGGCGAACTTCAGTAAGTCTGTGTTCCGTTGTCCGTGCTG
DNA 2: CAGCACGGACAACGGAACACAGACTTACTGAAGTTCGCCTGTCGTCTTACGTTTTGATCT
B7: dBr_Jan07_16171 (dsDNA)
DNA 1: ATCACGTGCATCTACTAGACACCCCATGCGTTAGGCGTCTGTGTTCCGTTGTCCGTGCTG
DNA 2: CAGCACGGACAACGGAACACAGACGCCTAACGCATGGGGTGTCTAGTAGATGCACGTGAT
B8: dBr_Jan07_10189 (dsDNA)
DNA 1: GTTTGTGAGGTTCCTGACTCTGAGCGGACCGGTAGAGTCTGTGTTCCGTTGTCCGTGCTG
DNA 2: CAGCACGGACAACGGAACACAGACTCTACCGGTCCGCTCAGAGTCAGGAACCTCACAAAC
B9: dBr_Jan07_04478 (dsDNA)
DNA 1: AGTTGCGCCACTATGCCAAAACACCATTGAGCACGTGTCTGTGTTCCGTTGTCCGTGCTG
DNA 2: CAGCACGGACAACGGAACACAGACACGTGCTCAATGGTGTTTTGGCATAGTGGCGCAACT
B10: dBr_Jan07_38419 (dsDNA)
DNA 1: ATTGCTCAGTGACACAGATATGAAGCGCTATGCATCGTCTGTGTTCCGTTGTCCGTGCTG
DNA 2: CAGCACGGACAACGGAACACAGACGATGCATAGCGCTTCATATCTGTGTCACTGAGCAAT
B11: dBr_Jan07_19630 (dsDNA)
DNA 1: AAGCGAGCAGATAAGCCTAAGCCCGAGCTGAACAAAGTCTGTGTTCCGTTGTCCGTGCTG
DNA 2: CAGCACGGACAACGGAACACAGACTTTGTTCAGCTCGGGCTTAGGCTTATCTGCTCGCTT
B12: dBr_Jan07_16204 (dsDNA)
DNA 1: ATGAACCAATCGGTCGATTAGAGATAGAGAAAGAAGGTCTGTGTTCCGTTGTCCGTGCTG
DNA 2: CAGCACGGACAACGGAACACAGACCTTCTTTCTCTATCTCTAATCGACCGATTGGTTCAT
B13: dBr_Jan07_20877 (dsDNA)
DNA 1: TAAACCTAGAGACGCTAAGAACACTTACAGGCGAGCGTCTGTGTTCCGTTGTCCGTGCTG
DNA 2: CAGCACGGACAACGGAACACAGACGCTCGCCTGTAAGTGTTCTTAGCGTCTCTAGGTTTA
B14: dBr_Jan07_36814 (dsDNA)
DNA 1: GCGCAAGCCATGACCCGGTACGATTTAGAAATGGCGGTCTGTGTTCCGTTGTCCGTGCTG
DNA 2: CAGCACGGACAACGGAACACAGACCGCCATTTCTAAATCGTACCGGGTCATGGCTTGCGC
B15: dBr_Jan07_33794 (dsDNA)
DNA 1: TATTAGAATGTCAGCTCTCAATCACGTGATTCGGAAGTCTGTGTTCCGTTGTCCGTGCTG
DNA 2: CAGCACGGACAACGGAACACAGACTTCCGAATCACGTGATTGAGAGCTGACATTCTAATA
B16: dBr_Jan07_16409 (dsDNA)
DNA 1: CGTTACTGGTGCACGTGTTCTCCTCTCCACCTTCAGGTCTGTGTTCCGTTGTCCGTGCTG
DNA 2: CAGCACGGACAACGGAACACAGACCTGAAGGTGGAGAGGAGAACACGTGCACCAGTAACG
B17: dBr_Jan07_28571 (dsDNA)
DNA 1: TCGTTCTTATTTTGGCACGTGCACCCGCTTTGCTCAGTCTGTGTTCCGTTGTCCGTGCTG
DNA 2: CAGCACGGACAACGGAACACAGACTGAGCAAAGCGGGTGCACGTGCCAAAATAAGAACGA
B18: dBr_Jan07_01315 (dsDNA)
DNA 1: ATTACCTACTCAACTTACTAGGAAACACGTGCACATGTCTGTGTTCCGTTGTCCGTGCTG
DNA 2: CAGCACGGACAACGGAACACAGACATGTGCACGTGTTTCCTAGTAAGTTGAGTAGGTAAT
B19: dBr_Jan07_10036 (dsDNA)
DNA 1: CCGCGGACAGGTTCAGCCATCCGACTGCTACGCACAGTCTGTGTTCCGTTGTCCGTGCTG
DNA 2: CAGCACGGACAACGGAACACAGACTGTGCGTAGCAGTCGGATGGCTGAACCTGTCCGCGG
B20: dBr_Jan07_26545 (dsDNA)
DNA 1: ACTGCGCCGGAGAGTTCAACGAACTACTACGTCGAAGTCTGTGTTCCGTTGTCCGTGCTG
DNA 2: CAGCACGGACAACGGAACACAGACTTCGACGTAGTAGTTCGTTGAACTCTCCGGCGCAGT
B21: dBr_Jan07_16923 (dsDNA)
DNA 1: TGGGTCATGCTCGAACAGCGTCACTAGGTAGCACGTGTCTGTGTTCCGTTGTCCGTGCTG
DNA 2: CAGCACGGACAACGGAACACAGACACGTGCTACCTAGTGACGCTGTTCGAGCATGACCCA
B22: dBr_Jan07_03962 (dsDNA)
DNA 1: TGGCCGCCACGTGGCGCTCTGCGGTCACATGTTGGGGTCTGTGTTCCGTTGTCCGTGCTG
DNA 2: CAGCACGGACAACGGAACACAGACCCCAACATGTGACCGCAGAGCGCCACGTGGCGGCCA
B23: dBr_Jan07_16464 (dsDNA)
DNA 1: AGATCCAACGAGAGTTATGGACAAACTGGTCCTACAGTCTGTGTTCCGTTGTCCGTGCTG
DNA 2: CAGCACGGACAACGGAACACAGACTGTAGGACCAGTTTGTCCATAACTCTCGTTGGATCT
B24: dBr_Jan07_22161 (dsDNA)
DNA 1: GAATTTACCCGCGCTGTTGGTCACGTGTGTGGTTTTGTCTGTGTTCCGTTGTCCGTGCTG
DNA 2: CAGCACGGACAACGGAACACAGACAAAACCACACACGTGACCAACAGCGCGGGTAAATTC
B25: dBr_Jan07_22649 (dsDNA)
DNA 1: TTACATACCAGGACTTATCGCATAGGTAGGCTGAGAGTCTGTGTTCCGTTGTCCGTGCTG
DNA 2: CAGCACGGACAACGGAACACAGACTCTCAGCCTACCTATGCGATAAGTCCTGGTATGTAA
B26: dBr_Jan07_22788 (dsDNA)
DNA 1: TTGTTTCGCATCGCTAGGCATTGATAACGGAAGCTGGTCTGTGTTCCGTTGTCCGTGCTG
DNA 2: CAGCACGGACAACGGAACACAGACCAGCTTCCGTTATCAATGCCTAGCGATGCGAAACAA
B27: dBr_Jan07_10789 (dsDNA)
DNA 1: ACGAGTGGCCCTCGCATCGCGGAAGCTAGACTGATTGTCTGTGTTCCGTTGTCCGTGCTG
DNA 2: CAGCACGGACAACGGAACACAGACAATCAGTCTAGCTTCCGCGATGCGAGGGCCACTCGT
B28: dBr_Jan07_25737 (dsDNA)
DNA 1: TGCACGACCAGTCATCCACGTGTTTGCCCGCAAAGTGTCTGTGTTCCGTTGTCCGTGCTG
DNA 2: CAGCACGGACAACGGAACACAGACACTTTGCGGGCAAACACGTGGATGACTGGTCGTGCA
B29: dBr_Jan07_02776 (dsDNA)
DNA 1: GACGAAGTAAGGCTAGCTTGTCGCTAAAAAGACGCAGTCTGTGTTCCGTTGTCCGTGCTG
DNA 2: CAGCACGGACAACGGAACACAGACTGCGTCTTTTTAGCGACAAGCTAGCCTTACTTCGTC
B30: dBr_Jan07_00062 (dsDNA)
DNA 1: TGGTGACCTGAGAGGCCGGTTGCTTCAGCCTACAACGTCTGTGTTCCGTTGTCCGTGCTG
DNA 2: CAGCACGGACAACGGAACACAGACGTTGTAGGCTGAAGCAACCGGCCTCTCAGGTCACCA
B31: dBr_Jan07_30895 (dsDNA)
DNA 1: TTGCCGTATAGTGATCCTAAGCGTCCACGTGGATGAGTCTGTGTTCCGTTGTCCGTGCTG
DNA 2: CAGCACGGACAACGGAACACAGACTCATCCACGTGGACGCTTAGGATCACTATACGGCAA
B32: dBr_Jan07_39455 (dsDNA)
DNA 1: TGAAAGACCTTAGATGGGCTTGTCTCTTGGCGTTTGGTCTGTGTTCCGTTGTCCGTGCTG
DNA 2: CAGCACGGACAACGGAACACAGACCAAACGCCAAGAGACAAGCCCATCTAAGGTCTTTCA

Sequence of WT Max (P61244 other isoform, or with tags, fused parts or gaps M65Nle): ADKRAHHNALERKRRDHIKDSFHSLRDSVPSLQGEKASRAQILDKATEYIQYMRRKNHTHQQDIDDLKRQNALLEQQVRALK

This series addresses WT Max (Homo sapiens, UniProt P61244-2 13-93, M65Nle, norleucine written as M; other non-natural residues written as X). As to the kind of experiment: PBM; 50-200 nM protein; PBS, 2% milk, BSA, salmon testes DNA, 0.02% Triton X-100. Particulars: chain copies: 2; label: surface-attached array probe.
Take B1: the binding signal was -0.93 robust z of log adjusted intensity (ours), mean of two arrays. As to B2, the binding signal is -1.12 robust z of log adjusted intensity (ours), mean of two arrays. For the molecule B3, the binding signal is -1.18 robust z of log adjusted intensity (ours), mean of two arrays. In the case of B4, the binding signal was -0.92 robust z of log adjusted intensity (ours), mean of two arrays. For B5, the binding signal was -1.31 robust z of log adjusted intensity (ours), mean of two arrays.

With B6, the binding signal was -1.15 robust z of log adjusted intensity (ours), mean of two arrays. On to B7, for which the binding signal is 6.35 robust z of log adjusted intensity (ours), mean of two arrays. Regarding B8, the binding signal is -0.8 robust z of log adjusted intensity (ours), mean of two arrays.

On to B9, for which the binding signal was 4.55 robust z of log adjusted intensity (ours), mean of two arrays. On to B10, for which the binding signal was -0.96 robust z of log adjusted intensity (ours), mean of two arrays. For the molecule B11, the binding signal is -0.87 robust z of log adjusted intensity (ours), mean of two arrays. As for B12, the binding signal is -1.46 robust z of log adjusted intensity (ours), mean of two arrays. B13: the binding signal is -1.02 robust z of log adjusted intensity (ours), mean of two arrays. In the case of B14, the binding signal is -1.34 robust z of log adjusted intensity (ours), mean of two arrays. Under B15 stands 4.69 robust z of log adjusted intensity (ours), mean of two arrays; under B16, 4.95 robust z of log adjusted intensity (ours), mean of two arrays.

B17: the binding signal is 5.15 robust z of log adjusted intensity (ours), mean of two arrays. Consider B18, for which the binding signal was 5.18 robust z of log adjusted intensity (ours), mean of two arrays.

As for B19, the binding signal is -0.76 robust z of log adjusted intensity (ours), mean of two arrays. In the case of B20, the binding signal is -0.92 robust z of log adjusted intensity (ours), mean of two arrays.

B21: the binding signal was 4.47 robust z of log adjusted intensity (ours), mean of two arrays. Regarding B22, the binding signal is 4.57 robust z of log adjusted intensity (ours), mean of two arrays.

Consider B23, for which the binding signal was -1 robust z of log adjusted intensity (ours), mean of two arrays. Regarding B24, the binding signal was 5.72 robust z of log adjusted intensity (ours), mean of two arrays. For the molecule B25, the binding signal was -0.77 robust z of log adjusted intensity (ours), mean of two arrays.

In the case of B26, the binding signal is -0.82 robust z of log adjusted intensity (ours), mean of two arrays. Turning to B27, the binding signal is -0.92 robust z of log adjusted intensity (ours), mean of two arrays.

With B28, the binding signal is 4.58 robust z of log adjusted intensity (ours), mean of two arrays. B29: the binding signal was -1.15 robust z of log adjusted intensity (ours), mean of two arrays. As to B30, the binding signal was -0.8 robust z of log adjusted intensity (ours), mean of two arrays. Next, B31: 4.78 robust z of log adjusted intensity (ours), mean of two arrays; B32: -0.88 robust z of log adjusted intensity (ours), mean of two arrays.

For the origin of these results see paper PMC12636033, “Chemical Engineering of Transcription Factors Uncovered Cell-Permeable μMax Modulators”.
